Measured values taken from article doi:10.1101/2023.01.26.525744.
pKd: −log10 of the molar value.

Experiments:
Experiment in all cases: NMR titration
[1] = molecular target: cytoplasmic tail of human integrin β3 (aa748-788) (human) (UniProt P05106)
[2] = molecular target: cytoplasmic tail of human integrin β1 (aa758-798) (human) (UniProt P05556)
[3] = molecular target: paxillin LIM2/3 tandem domain (aa380-499) (human) (UniProt P49023)

Chain of UniProt P05556 (P05556 758-798): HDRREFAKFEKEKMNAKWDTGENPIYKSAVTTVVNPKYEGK

Row | Substance | pKd [1] | pKd [2] | pKd [3]
1 | paxillin LIM2/3 tandem domain (aa380-499) (from UniProt P49023-2 380-499) (domain or fragment) | 3.28 | 4.28 | 
2 | cytoplasmic tail of human integrin β3 (aa748-788) (from UniProt P05106 748-788) (domain or fragment) |  |  | 3.27
